Assay results: article doi:10.1101/2021.02.24.432656 (bioRxiv, 2021)

Target: T1, bacterially purified STAT1 recombinant protein (human, UniProt P42224 1-750)
T1 sequence: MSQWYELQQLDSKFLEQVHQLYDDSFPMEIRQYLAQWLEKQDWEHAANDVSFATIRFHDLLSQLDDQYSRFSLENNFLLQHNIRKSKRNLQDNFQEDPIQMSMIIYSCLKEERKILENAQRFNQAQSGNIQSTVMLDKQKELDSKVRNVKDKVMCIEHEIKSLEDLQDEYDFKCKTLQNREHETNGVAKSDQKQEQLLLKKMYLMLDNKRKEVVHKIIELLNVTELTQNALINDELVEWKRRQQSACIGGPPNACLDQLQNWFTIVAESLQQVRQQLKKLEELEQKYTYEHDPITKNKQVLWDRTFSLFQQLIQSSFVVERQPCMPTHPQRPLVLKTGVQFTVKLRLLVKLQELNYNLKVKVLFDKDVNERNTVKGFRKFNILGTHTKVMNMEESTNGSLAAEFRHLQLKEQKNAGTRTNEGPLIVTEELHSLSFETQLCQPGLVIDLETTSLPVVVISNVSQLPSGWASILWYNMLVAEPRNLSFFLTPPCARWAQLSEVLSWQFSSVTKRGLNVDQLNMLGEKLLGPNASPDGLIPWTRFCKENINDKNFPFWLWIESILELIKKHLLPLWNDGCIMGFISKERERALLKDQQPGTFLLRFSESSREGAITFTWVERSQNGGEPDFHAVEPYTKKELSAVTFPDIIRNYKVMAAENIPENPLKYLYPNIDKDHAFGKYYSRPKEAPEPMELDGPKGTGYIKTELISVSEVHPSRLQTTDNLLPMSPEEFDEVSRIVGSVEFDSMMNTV
Assay: pull-down

YSQLDEEQPMEID (domain or fragment) [GST-GFP fused with the C-terminal peptide of ORF6 wild type (49-61 amino acids)]: binds.
